Laboratory results reported in patent US20230295571A1, “COMPOSITIONS AND METHODS FOR STEM CELL CHONDROGENESIS” (Washington University, priority 2020, published 2023).

What was measured:
VEGFR2 = VEGFR2 (Homo sapiens, UniProt P35968); settings: cell-free assays; cited from earlier work
[1] = tested on: hiPSC chondrogenic pellets; assay: Immunohistochemistry of collagens in pellets; type: cell-based, human; settings: pellet culture
Experimental: (§1) WNT ligands treatment during chondrogenesis. For WNT ligands treatment during chondrogenesis, pellets were treated with either 10 ng ml^−1 TGF-β3 (control group) or a combination of 10 ng ml^−1 TGF-β3 and 100 ng ml^−1 individual WNT ligand (WNT2B, WNT3A, WNT4, WNT5B, or WNT7B, all from R&D system) in chondrogenic medium from d0 to d42 as appropriate. For WNT ligands treatment during the Cp stage, cells were supplemented with either 20 ng ml^−1 BMP4 (R&D Systems, #314-BP-010) alone (control group), a combination of 20 ng ml^−1 BMP4 and 1 μM WNT-059, or a combination of 20 ng ml^−1 BMP4 and 100 ng ml^−1 WNT3A (R&D Systems, #5036-WN-010) in mesodermal differentiation medium from d7 to d12.
Immunohistochemistry. Histologic sections (8 μm thick) of the pellets were rinsed with xylenes three times and rehydrated before labeling. Antigen retrieval was performed with 0.02% proteinase K for 3 min at 37° C. for COL2A1 and COL6A1 and with pepsin for 5 min at room temperature for COL1A1 and COL10A1 followed by peroxidase quench then serum blocking for 30 min at room temperature. […]

[2] = tested on: CD146/CD166+ cells at the Cp stage; assay: FACS for progenitors at the Cp stage; type: cell-based, human; settings: with BMP4, 1 μM WNT-C59 or 100 ng/ml WNT3A
Experimental: as §1
FACS for progenitors. […] Data were analyzed using FlowJo software (version 10.5.3).

[3] = tested on: hiPSC chondrogenic pellets; assay: Biochemical analysis of cartilaginous matrix production (GAG/DNA) in hiPSC chondrogenic pellets; type: cell-based, human; settings: 100 ng/ml WNT ligand + TGF-β3 vs TGF-β3 only
Experimental: Chondrogenic differentiation. Cells dissociated at the Cp stage were resuspended at 5×10^5 cells per mL in chondrogenic medium consisting of DMEM/F-12, 1% FBS, 1% ITS+, 55 μM β-mertcaptoethanol, 100 nM dexamethasone (DEX; Sigma-Aldrich, #D4902), 1% NEAA (Gibco, #11140050), 1% P/S, 10 ng ml^−1 human transforming growth factor-beta 3 (TGF-β3; R&D Systems, #243-B3-010), 50 μg ml^−1 L-ascorbic acid 2-phosphate (ascorbate; Sigma-Aldrich, #A8960), and 40 μg ml^−1 L-Proline (proline; Sigma-Aldrich, #P5607). Cells were then centrifuged for 5 min at 300×g to form a pellet. Chondrogenic pellets were cultured at 37° C. for up to the timepoints required for various experiments.
WNT-C59 and ML329 treatment for WNT and MITF inhibition. For WNT-C59 treatment for WNT inhibition during chondrogenesis, pellets were treated with either 10 ng ml^−1 TGF-β3 (control group) or a combination of 10 ng ml^−1 TGF-β3 and 1 μM WNT-C59 in a chondrogenic medium from d0 to d42 as appropriate. […]
Biochemical analysis of cartilaginous matrix production. […] GAG content, as calculated based on the standard curve, was normalized to double-stranded DNA content to obtain the GAG/DNA ratio.

[4] = tested on: hiPSC chondrogenic pellets; assay: RT-qPCR of pellets treated with WNT ligands; type: cell-based, human
Experimental: as §1
RT-qPCR. RNA of the pellets was isolated using the Total RNA Purification Kit according to the manufacture's protocol (Norgen Biotek, #37500). Reverse transcription of the RNA was performed using SuperScript VILO Master Mix (Thermo Fisher, #11755050). Fast SYBR Green Master Mix (Thermo Fisher, #4385614) was used for reverse transcription-quantitative polymerase chain reaction (RT-qPCR) according to the manufacturer's instructions on the QuantStudio 3 (Thermo Fisher). Gene expression was analyzed using the ΔΔCT method relative to undifferentiated hiPSCs with the reference gene TATA-box-binding protein (TBP).

Chain of VEGFR2 (P35968 20-1356, species assumed): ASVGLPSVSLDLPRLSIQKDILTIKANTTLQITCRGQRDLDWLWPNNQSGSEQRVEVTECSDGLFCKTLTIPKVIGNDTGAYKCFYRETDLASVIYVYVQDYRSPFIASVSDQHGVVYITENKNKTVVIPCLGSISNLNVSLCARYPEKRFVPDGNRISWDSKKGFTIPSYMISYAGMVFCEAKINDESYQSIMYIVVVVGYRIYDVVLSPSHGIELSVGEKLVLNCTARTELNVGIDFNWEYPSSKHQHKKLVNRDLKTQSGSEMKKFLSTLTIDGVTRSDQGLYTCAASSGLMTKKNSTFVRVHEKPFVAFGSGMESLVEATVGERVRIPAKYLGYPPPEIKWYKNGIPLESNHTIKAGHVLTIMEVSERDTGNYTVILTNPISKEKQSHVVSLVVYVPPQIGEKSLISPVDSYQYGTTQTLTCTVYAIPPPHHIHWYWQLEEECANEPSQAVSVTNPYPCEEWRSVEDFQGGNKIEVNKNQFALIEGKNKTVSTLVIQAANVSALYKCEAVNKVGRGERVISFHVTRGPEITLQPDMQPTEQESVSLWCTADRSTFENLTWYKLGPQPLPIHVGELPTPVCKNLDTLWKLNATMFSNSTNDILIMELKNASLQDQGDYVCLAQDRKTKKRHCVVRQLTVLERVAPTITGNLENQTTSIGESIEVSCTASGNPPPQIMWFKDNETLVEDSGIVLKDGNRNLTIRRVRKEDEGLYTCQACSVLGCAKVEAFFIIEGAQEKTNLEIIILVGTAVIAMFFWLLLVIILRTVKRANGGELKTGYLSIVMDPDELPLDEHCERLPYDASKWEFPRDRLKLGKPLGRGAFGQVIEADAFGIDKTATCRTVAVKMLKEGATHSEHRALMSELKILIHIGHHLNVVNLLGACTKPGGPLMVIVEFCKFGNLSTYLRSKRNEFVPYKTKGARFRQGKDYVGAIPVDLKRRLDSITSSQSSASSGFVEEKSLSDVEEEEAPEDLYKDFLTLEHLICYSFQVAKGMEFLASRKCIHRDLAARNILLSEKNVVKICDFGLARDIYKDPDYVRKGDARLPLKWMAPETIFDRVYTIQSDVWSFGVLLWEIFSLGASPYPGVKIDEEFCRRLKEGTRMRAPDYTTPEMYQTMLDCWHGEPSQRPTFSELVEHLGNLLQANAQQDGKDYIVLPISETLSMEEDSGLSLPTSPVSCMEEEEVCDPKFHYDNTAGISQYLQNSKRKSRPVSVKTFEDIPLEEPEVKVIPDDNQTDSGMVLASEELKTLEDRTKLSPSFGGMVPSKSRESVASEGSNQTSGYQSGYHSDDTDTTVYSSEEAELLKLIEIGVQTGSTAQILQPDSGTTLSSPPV

## CCN(CC)CCCCNc1ncc2cc(-c3cc(OC)cc(OC)c3)c(NC(=O)NC(C)(C)C)nc2n1 [PD173074]
VEGFR2
  IC50: 100 to 200 nM

B1: WNT3A: WNT ligand (R&D Systems) added at 100 ng/ml (protein, UniProt P56704 19-352, looked up)
Protein Wnt-3a: SYPIWWSLAVGPQYSSLGSQPILCASIPGLVPKQLRFCRNYVEIMPSVAEGIKIGIQECQHQFRGRRWNCTTVHDSLAIFGPVLDKATRESAFVHAIASAGVAFAVTRSCAEGTAAICGCSSRHQGSPGKGWKWGGCSEDIEFGGMVSREFADARENRPDARSAMNRHNNEAGRQAIASHMHLKCKCHGLSGSCEVKTCWWSQPDFRAIGDFLKDKYDSASEMVVEKHRESRGWVETLRPRYTYFKVPTERDLVYYEASPNFCEPNPETGSFGTRDRTCNVSSHGIDGCDLLCCGRGHNARAERRREKCRCVFHWCCYVSCQECTRVYDVHTCK
[1]
  COL1A1 and COL10A1 staining/production: higher intensity
[2]
  percentage of CD146/CD166+ cells: increased
[3]
  GAG/DNA ratio: significantly decreased
[4]; 100 ng/ml WNT ligand + TGF-β3 vs TGF-β3 pellets
  COL2A1, COL1A1, and COL10A1 expression: increased

B2: WNT7B: WNT ligand (R&D system) added at 100 ng/ml (protein, UniProt P56706 25-349, looked up)
Protein Wnt-7b: ALSSVVALGANIICNKIPGLAPRQRAICQSRPDAIIVIGEGAQMGINECQYQFRFGRWNCSALGEKTVFGQELRVGSREAAFTYAITAAGVAHAVTAACSQGNLSNCGCDREKQGYYNQAEGWKWGGCSADVRYGIDFSRRFVDAREIKKNARRLMNLHNNEAGRKVLEDRMQLECKCHGVSGSCTTKTCWTTLPKFREVGHLLKEKYNAAVQVEVVRASRLRQPTFLRIKQLRSYQKPMETDLVYIEKSPNYCEEDAATGSVGTQGRLCNRTSPGADGCDTMCCGRGYNTHQYTKVWQCNCKFHWCCFVKCNTCSERTEVFTCK
[4]; 100 ng/ml WNT ligand + TGF-β3 vs TGF-β3 only
  chondrogenic markers (SOX9, ACAN, COL2A1) and osteogenic marker (COL1A1): significantly decreased
[4]; 100 ng/ml WNT ligand, relative to TGF-β3 pellets
  expression of MITF: significantly lower
